The text below walks through data of article PMC9960064.

Holding throughout (assay): ITC
In general terms: In ITC the heat of successive injections is recorded.

The target in experiment [1] is untagged β′-COP residues 1–604 (yeast (S. cerevisiae)) (UniProt P41811).
The target in experiment [2] is C-terminal β′-COP propeller (residues 300–604), untagged (yeast (S. cerevisiae)) (UniProt P41811).
Experiment [3] deals with β′-COP R13A/K15A/R59A (RKR mutant), residues 1–604, untagged (yeast (S. cerevisiae)) (UniProt P41811).

Sequence of untagged β′-COP residues 1–604 (yeast (S. cerevisiae)) (P41811 1-604): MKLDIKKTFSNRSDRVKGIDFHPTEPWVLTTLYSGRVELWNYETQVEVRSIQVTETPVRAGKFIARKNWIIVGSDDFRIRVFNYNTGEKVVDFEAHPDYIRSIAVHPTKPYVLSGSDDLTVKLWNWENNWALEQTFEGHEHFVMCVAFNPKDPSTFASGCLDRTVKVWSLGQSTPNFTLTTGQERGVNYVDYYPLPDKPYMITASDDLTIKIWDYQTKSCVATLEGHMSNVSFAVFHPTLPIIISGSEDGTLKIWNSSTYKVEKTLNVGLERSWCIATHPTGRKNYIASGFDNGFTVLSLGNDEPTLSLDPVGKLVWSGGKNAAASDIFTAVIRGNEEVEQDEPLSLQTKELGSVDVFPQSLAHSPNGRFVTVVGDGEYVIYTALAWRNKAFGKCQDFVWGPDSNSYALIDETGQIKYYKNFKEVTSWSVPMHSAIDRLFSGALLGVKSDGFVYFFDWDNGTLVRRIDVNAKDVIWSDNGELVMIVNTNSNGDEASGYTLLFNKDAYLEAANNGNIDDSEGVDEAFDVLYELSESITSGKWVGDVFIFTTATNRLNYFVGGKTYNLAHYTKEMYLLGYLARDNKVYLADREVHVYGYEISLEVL
Sequence of C-terminal β′-COP propeller (residues 300–604), untagged (yeast (S. cerevisiae)) (P41811 300-604): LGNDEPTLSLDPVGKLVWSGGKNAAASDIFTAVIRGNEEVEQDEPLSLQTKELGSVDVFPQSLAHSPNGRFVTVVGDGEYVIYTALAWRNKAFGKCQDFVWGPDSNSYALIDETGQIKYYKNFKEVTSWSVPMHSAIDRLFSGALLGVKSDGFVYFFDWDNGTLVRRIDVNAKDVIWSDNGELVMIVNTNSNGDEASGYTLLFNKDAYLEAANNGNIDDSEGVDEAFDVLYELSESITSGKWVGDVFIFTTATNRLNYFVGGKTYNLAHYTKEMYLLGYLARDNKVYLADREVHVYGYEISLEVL
Sequence of untagged Glo3 residues 230–290 (P38682 230-290): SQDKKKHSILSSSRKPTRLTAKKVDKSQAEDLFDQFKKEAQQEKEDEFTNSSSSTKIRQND
Sequence of untagged Glo3 BoCCS fragment (residues 230–300) (P38682 230-300): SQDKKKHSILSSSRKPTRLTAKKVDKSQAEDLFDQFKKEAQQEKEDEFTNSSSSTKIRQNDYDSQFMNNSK

Consider “Glo3 fragment lacking N-terminal residues 230–240, untagged (domain or fragment)”, for which the Kd – broadly, the free concentration of one partner at which half of the binding sites on the other are occupied at equilibrium, for simple one-to-one binding – in experiment [1] is above 300 µM.

As for “full BoCCS Glo3 fragment (residues 208–383), untagged (from UniProt P38682 208-383) (domain or fragment)”, in experiment [1], the stoichiometry N (in general, the number of molecules, sites or subunits per partner or assembly) came out at 1.

“untagged Glo3 BoCCS fragment (residues 230–300) (from UniProt P38682 230-300) (domain or fragment)”: the Kd in experiment [2] was below 300 µM.

Substance “untagged Glo3 residues 230–290 (from UniProt P38682 230-290) (domain or fragment)” had a fold weaker binding than wild-type β′-COP in experiment [3] of 16 fold.
